Test results taken from IntAct's records for PubMed 20562859.

B1: Gamma-aminobutyric acid receptor-associated protein (Homo sapiens), O95166 (parent)
chain: MKFVYKEEHPFEKRRSEGEKIRKKYPDRVPVIVEKAPKARIGDLDKKKYLVPSDLTVGQFYFLIRKRIHLRAEDALFFFVNNVIPPTSATMGQLYQEHHEEDFFLYIAYSDESVYGL
partner: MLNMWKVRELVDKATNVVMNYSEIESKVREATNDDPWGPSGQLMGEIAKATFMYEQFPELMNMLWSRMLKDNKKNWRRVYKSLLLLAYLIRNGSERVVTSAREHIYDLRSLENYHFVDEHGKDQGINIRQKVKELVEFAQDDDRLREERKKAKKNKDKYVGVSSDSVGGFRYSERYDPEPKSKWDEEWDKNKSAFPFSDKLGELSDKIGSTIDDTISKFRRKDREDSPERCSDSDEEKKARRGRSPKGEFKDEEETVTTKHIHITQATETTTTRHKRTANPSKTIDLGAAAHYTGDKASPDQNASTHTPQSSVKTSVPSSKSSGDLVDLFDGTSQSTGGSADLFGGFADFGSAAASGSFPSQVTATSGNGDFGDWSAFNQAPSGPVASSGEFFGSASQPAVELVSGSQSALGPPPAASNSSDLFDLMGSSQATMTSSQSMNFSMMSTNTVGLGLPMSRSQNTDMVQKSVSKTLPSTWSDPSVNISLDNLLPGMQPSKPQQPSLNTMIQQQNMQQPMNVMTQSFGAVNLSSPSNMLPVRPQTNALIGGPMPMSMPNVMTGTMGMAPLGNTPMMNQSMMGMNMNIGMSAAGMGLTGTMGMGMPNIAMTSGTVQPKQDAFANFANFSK
B2: Gamma-aminobutyric acid receptor-associated protein (Homo sapiens), O95166 (parent)
chain: B1 chain
partner: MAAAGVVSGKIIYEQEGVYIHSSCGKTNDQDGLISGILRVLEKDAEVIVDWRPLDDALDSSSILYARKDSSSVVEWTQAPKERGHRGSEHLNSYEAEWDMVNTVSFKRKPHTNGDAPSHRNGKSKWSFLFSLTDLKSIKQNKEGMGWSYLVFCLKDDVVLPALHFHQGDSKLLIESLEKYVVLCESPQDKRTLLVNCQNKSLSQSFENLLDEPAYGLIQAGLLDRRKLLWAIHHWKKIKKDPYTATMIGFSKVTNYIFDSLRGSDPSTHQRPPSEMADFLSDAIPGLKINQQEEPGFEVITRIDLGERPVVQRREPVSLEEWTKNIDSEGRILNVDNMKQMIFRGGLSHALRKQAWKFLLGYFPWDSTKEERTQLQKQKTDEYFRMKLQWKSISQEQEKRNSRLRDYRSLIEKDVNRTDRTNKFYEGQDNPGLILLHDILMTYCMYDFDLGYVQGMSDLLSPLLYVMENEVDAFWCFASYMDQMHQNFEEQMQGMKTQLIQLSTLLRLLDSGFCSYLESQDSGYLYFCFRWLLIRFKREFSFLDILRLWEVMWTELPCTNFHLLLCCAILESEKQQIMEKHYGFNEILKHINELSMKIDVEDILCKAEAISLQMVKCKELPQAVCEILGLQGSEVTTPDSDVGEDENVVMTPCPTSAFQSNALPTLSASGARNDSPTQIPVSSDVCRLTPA
B3: Gamma-aminobutyric acid receptor-associated protein (Homo sapiens), O95166 (parent)
chain: B1 chain
partner: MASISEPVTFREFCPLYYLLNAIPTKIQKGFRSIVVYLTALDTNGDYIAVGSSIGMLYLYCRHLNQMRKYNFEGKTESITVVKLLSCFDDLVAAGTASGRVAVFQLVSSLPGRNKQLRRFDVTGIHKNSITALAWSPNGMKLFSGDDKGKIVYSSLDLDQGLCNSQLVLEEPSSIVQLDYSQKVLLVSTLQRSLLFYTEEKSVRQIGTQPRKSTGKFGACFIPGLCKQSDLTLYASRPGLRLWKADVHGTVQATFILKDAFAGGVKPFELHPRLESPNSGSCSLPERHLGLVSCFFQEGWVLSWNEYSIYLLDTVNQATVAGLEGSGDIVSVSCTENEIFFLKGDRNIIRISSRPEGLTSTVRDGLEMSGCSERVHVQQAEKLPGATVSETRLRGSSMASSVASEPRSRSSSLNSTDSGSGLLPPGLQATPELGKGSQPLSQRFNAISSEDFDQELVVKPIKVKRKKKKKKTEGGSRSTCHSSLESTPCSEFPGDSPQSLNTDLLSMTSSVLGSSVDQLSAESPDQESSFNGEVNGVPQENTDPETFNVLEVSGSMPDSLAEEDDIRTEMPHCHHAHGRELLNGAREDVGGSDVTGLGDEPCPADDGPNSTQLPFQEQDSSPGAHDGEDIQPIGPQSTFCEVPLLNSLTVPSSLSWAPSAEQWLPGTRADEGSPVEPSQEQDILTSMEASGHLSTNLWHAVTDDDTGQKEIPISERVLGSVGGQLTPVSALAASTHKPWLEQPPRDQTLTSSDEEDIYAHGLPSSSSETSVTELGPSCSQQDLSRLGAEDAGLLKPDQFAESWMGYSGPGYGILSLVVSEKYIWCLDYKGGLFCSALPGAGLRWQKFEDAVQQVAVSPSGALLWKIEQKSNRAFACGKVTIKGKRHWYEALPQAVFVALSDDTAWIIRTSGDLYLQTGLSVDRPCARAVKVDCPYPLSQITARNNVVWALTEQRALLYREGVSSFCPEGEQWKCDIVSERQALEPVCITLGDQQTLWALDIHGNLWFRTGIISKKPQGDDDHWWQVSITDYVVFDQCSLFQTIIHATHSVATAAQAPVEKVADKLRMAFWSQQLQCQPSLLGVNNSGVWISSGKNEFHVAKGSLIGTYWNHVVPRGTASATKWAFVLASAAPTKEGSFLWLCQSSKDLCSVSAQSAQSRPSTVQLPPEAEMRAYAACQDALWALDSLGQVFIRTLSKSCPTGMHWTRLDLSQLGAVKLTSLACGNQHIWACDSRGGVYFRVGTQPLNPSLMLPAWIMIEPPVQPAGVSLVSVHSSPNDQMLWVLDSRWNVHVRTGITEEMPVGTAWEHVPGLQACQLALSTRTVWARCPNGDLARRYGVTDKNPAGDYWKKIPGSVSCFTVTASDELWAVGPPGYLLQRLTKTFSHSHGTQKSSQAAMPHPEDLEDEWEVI
B4: Gamma-aminobutyric acid receptor-associated protein (Homo sapiens), O95166 (parent)
chain: B1 chain
partner: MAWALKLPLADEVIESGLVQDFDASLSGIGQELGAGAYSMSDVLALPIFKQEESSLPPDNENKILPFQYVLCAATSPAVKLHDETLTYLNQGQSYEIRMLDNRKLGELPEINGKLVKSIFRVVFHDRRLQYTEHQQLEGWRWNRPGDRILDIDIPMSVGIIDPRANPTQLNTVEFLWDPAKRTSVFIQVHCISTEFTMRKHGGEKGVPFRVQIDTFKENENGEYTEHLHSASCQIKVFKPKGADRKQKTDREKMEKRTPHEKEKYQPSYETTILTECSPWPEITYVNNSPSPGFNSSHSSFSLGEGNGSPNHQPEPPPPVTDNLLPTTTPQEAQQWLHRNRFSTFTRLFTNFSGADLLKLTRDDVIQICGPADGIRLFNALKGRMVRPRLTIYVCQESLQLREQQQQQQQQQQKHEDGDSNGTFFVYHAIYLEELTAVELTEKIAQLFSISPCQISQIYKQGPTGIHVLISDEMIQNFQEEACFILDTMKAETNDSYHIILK
B5: Gamma-aminobutyric acid receptor-associated protein (Homo sapiens), O95166 (parent)
chain: B1 chain
partner: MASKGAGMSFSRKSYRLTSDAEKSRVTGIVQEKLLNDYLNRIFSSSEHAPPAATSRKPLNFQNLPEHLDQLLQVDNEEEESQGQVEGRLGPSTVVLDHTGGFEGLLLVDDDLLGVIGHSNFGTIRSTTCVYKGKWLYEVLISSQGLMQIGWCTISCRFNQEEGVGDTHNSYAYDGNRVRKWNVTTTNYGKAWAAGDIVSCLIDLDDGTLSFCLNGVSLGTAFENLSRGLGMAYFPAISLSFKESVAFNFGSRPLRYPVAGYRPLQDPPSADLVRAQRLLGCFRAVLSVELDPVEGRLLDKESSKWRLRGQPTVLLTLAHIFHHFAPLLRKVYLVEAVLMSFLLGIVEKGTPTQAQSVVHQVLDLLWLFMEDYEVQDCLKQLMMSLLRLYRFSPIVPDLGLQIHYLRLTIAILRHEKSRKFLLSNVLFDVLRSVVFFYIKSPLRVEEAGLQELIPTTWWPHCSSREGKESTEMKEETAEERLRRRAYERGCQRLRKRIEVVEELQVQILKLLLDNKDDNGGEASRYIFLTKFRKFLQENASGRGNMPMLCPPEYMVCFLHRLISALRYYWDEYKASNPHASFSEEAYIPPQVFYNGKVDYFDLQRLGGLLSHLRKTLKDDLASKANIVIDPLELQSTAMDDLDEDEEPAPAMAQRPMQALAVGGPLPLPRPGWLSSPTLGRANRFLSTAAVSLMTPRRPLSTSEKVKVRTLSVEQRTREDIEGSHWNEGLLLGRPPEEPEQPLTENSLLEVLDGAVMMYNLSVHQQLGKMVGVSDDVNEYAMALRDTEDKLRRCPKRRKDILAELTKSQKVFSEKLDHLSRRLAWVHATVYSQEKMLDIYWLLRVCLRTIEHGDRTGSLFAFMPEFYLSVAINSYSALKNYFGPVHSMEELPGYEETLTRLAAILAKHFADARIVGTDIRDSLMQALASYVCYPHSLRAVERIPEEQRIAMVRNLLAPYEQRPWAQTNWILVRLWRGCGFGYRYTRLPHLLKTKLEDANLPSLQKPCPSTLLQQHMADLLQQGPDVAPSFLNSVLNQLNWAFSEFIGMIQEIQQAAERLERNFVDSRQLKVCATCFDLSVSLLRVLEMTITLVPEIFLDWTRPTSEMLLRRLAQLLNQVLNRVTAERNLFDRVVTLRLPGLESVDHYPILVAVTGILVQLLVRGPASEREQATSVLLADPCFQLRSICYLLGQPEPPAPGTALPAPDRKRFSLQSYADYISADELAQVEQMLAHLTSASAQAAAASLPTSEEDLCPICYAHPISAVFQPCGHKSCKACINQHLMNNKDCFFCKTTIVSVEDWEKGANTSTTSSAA

Variants of: B1
Settings: with epn4_human CLINT1, Q14677

**Q.** For Y49A;L50A, which “effect of a mutation on the interaction” value is on record?
**A.** Its value is “decreasing interaction”.

Variants of: B2
Settings: with tbc15_human TBC1D15, Q8TC07

**Q.** With Y49A;L50A as the variant, how does the “effect of a mutation on the interaction” value read?
**A.** Its value is “disrupting interaction”.

Variants of: B3
Settings: with tcpr2_human TECPR2, O15040

**Q.** Y49A;L50A was tested. Which “effect of a mutation on the interaction” value did it give?
**A.** Its value is “decreasing interaction”.

Variants of: B4
Settings: with tfcp2_human TFCP2, Q12800

**Q.** How did the “effect of a mutation on the interaction” value turn out when R71A was run?
**A.** Its value is “increasing interaction”.

**Q.** With Y49A;L50A as the variant, how does the “effect of a mutation on the interaction” value read?
**A.** The value was “decreasing interaction”.

Variants of: B5
Settings: with rn123_human RNF123, Q5XPI4

**Q.** With Y49A;L50A as the variant, how does the “effect of a mutation on the interaction” value read?
**A.** Its value is “decreasing interaction”.
